The DeepSol protein solubility set

Experiment: soluble on expression in E. coli; label from the status in PepcDB or PDB records

Sequence | soluble on expression in E. coli
MAHHHHHHMTSGYSSYAGASGSGHERFTRILVVGEASVGKTLLIRRLCDHIFGDTSITSTDEGSAPESPYQSQSAVADDDLGPEWGPTVGIAVDALKRSTTVLEDTVTMPNLAMSTPYDTAAVARYTAPSCSLHSGENGNYPHCSVYDTPCSTSGYGRSNSVLQYRGQGFVGSNTSFALLHQLTSASPPRRQTVLQTVEFHELGGTHGYRDVARLLLRNIHYDGVMFVYHRRSLTSTLYLKEWYRWIRSVFSASPDVGSHYGAEAKKPVKCSKKMPRFMLVGTQLPGDELPAAAAGLTKAAAETLHMASGAISDETLLDGNLEVKLRALQSPQTLTQRRGVRHALSKVFRRLAWPYHMWWCVSHPFFLLSKQYQEELGPRSRLGACGSRVVERFVWLFYQAEQALLYVMAVILFGPYQEAVVLGHSRPKQTLEEMLKDELCVSQAHVCRLESNISLQSSLDDMVAFFDILLRQDAPDEGR | not soluble
MAHHHHHHMVDRIEATLNRLIAFGPGTASYTDDAAFLQNVASAMEVAGEIPVLTEACMSLSVDLLENSSPQSAATHAVLTLLACCCMRDDNRELASRFGIFSLCVLLLRSSELLCKDTLLTIFDLIGTLCMSSASTRQMMRPCIPYVLGVMRTHPDCFQLCFSGAVVIGTLVMLDAANAELAAENDCVQILLTAFMRGHDKRKELLNRRRTSYSLRCQREEDESRRLCDNVIRWTEDALQKLVLAPSPVIDAKLEAADFGNYGDRVEVDELMWKLKFGRGKM | not soluble
MAHHHHHHMVELTEEEAMNFLNIALGEAEKSLQKELKEMPIFCLLINEEKKIISSSYNYTNESKNGSRHSELIAIDKYIYDGNYEQMKNLNLIKCYNNNENSIEKSIQDYFVSLDEKKNSELKINNYENINDKYMNEKYNKIQERINNLKKCCIVVTCEPCIMCVYALKLIGIKNIYFCCLNERFGGCGSVLSLHKKYEDINVHYIEHPECSEKSINLMKAFYKAGNPSAPEEKRKRPIS | not soluble
MAHHHHHHMVLLKILKKIKDNKRNLRILILGLDNAGKTTIIKRLLGEDIYSVSPTFGFNIETLEFGNNILNIWDIGGQKSIRHFWKNYYEDVDGIIFVVDSTDLFRLQLCSFELKQILKEERLYGSTLLILSNKVDIDKSLTINQIVEILKLNEMNMDRHWCINECSAFSGKGLLKSFMWLIDDITDRIDS | not soluble
MAHHHHHHMVLLWVDAEQYGVASSLGLSDDAKYPAFVIARGEDHFVHPSTEPVTAESIEKFIIEYSEKKLSPEIKSQPVPEIETVEGLTTVVGKTLDKYLSSGKDMLIEFFAPWCGHCKNLAPIYAKVAKEFESSDVIIAAMDATANQVDNSLFDVSGFPTIYFVPHGGKPIVYDGGRTFYEIYKFVHEHSSTLKDVPIPEEVKREEEKNGDYDDL | soluble
MAHHHHHHMVSASPPQRDRGSPPTRPLSEPQDVDAPAAGTVQALRQAVEAQEACVRLLRARQAAREALLRHTRRLLTADDSIEWPGSVEQLVRQVEASLHKLQQAHSEAAAPAATTADNVAPTSAPSRSPRNAAGDADPSADPLARIFHSGVEAQLAAVAEPPHTLPASTLASRSSTAKRRKEAGESGLTNAVSTTSPPPGGPFPPRSAAMTALLARSASRQEAGHAAMLAALSALELSLMSNSGATEVGRDVHNAEPAWLRQVDSDSANDDDAAPEEQQQEKEGNRGDIASSDYSDDFECGSSTSSGADD | not soluble
MAHHHHHHMVVSTGEFDHPPFQFRQRHTFNTTPLHDANRFGGRTAYLREIGPVNIKKQGRRFKKDPRTVQFNVDVWCAQQTLRKRWKQRDWEVIEIPFRLVPREQQRVIPELYTDIPQMTDPARNDFSNIRNKVYDREELQGVLFPAAGTMLYPPLQRVDKQAMTLDKYL | not soluble
MAHHHHHHMWTAPPSLRTVRPIFLPLNVVANSTSSLLLHPGQLDLKHVEGYMTSKKWLSKLKCCGDNPLTVDEMKALVLMFLKKISDTYVDDQAKWMNKMRSSQEEQGKALEEAMNEYEKNILFNHALKEQQLLHNNKKISEWNETIENAYEAQQEVLRQFEAKKREDKKKMALEKNNELIIAKDYIDKIKEAATDSRYANSKCFVYPASSAPCGACTSAGAIAPYRRFKEPRRKKQYSLCL | not soluble
MAHHHHHHMYLHLIKNSTAKTPQLYTAKDNSKTAMHLLTRRAANANYTVNRWYLKEKVDSSNRMRLEGLYECVLCASCTGSCPQYWWNREHFLGPAVLLQSYRWLVEPLDRDFDERVRMFETGNLVNMCHNIFNCSITCPKFLNPGLASKEIKRLSSPSTKRVGPAIEMEPVTSGKEAGKRSLLQRL | soluble
MAHHHHHHMYSQRLSRVSPYLSNGSLSPRRFYEMLRRYATENLRDNFVQMQYREALLRLSRRDYWHWMGLRYGTLLFFPYGPRPEQTDNIPDWRHDEKIVQKWCAGLTGVPFADAAMRELLTTGFVAHEGRQALAWLLTRGYGQDWRLGAEWLERCSLDYDPFLCYGNFAYFSELILDDFGEPVRSVHWLAHHHDQTGIYVKKWLPLLSKIPPVYIHRPHVLTPRMQAMHGVRLGKTYPYPLKLWDGAQYMLGSDELTTYFDDSSAWHRKTKSGAGGPGHAEALRHGKAIMKVREWNAAILPEEVAQRPWAHHLPASAFESSEDEVETLQMRQRNQNQPTRHGQLSL | not soluble
MAHHHHHHSLEYNLTTTDVVMENVTAFWEEGFSKLFEKAKENNNNRKISNCDTSLFFSNLLLGTPVLKDISFKIERGQLLAVAGSTGAGKTSLLMMIMGELEPSEGKIKHSGRISFCSQYSWIMPGTIKDNIIFGVSYDEYRYRSVIKACQLEEDISKFSEKDNIVLGEGGITLSGGQRARISLARAVYKDADLYLLDSPFGYLDVLTEKEIFESCVCKLMANKTRILVTSKMEHLKKADKILILHEGSVYFYGTFSELQNQRPDFSSKLMGCDTFDQFTAERRNSIITETLRRFSLEGDTSV | soluble
MAHHHHHHSLITTYKTITSSTQAEFKDKGSRFIAFAYPIRTLADVKKYLDPLKEEHHKARHWCYAYRLGVDGMQFRANDDGEPSGSAGRPILGQIDSVGITDVLVVVVRYFGGTLLGVPGLIHAYKEATAQALAVAEVVEKNIEKTVWLKCEYPFLNEAIRIAKQYQADILERDLQLDCRLTVSLSLVNYEACVAAWKNTRQIEVNTEKPFEEG | soluble
MAHHHHHHSLSFSCPLCHQPLSREKNSYICPQRHQFDMAKEGYVNLLPVQHKRSRDPGDSAEMMQARRAFLDAGHYQPLRDAIVAQLRERLDDKATAVLDIGCGEGYYTHAFADALPEITTFGLDVSKVAIKAAAKRYPQVTFCVASSHRLPFSDTSMDAIIRIYAPCKAEELARVVKPGGWVITATPGPRHLMELKGLIYNEVHLHAPHAEQLEGFTLQQSAELCYPMRLRGDEAVALLQMTPFAWRAKPEVWQTLAAKEVFDCQTDFNIHLWQRSYEG | soluble
MAHHHHHHVDDDDKPGPALYEENALKGKIDDPNSYVPDAVQEAYKNLDSTSTLTEENFGKPYISAKDLKEIMYDHLPGFGTAFHQLVQVICKIGKDNNLLDTIHAEFQASLADGDSPQCALIQITKRVPIFQDVPPPIIHIRSRGDIPRACQKSLRPAPPSPKIDRGWVCLFKMQDGKTLGLKI | soluble
MAHLQYRDGDWYLHASMRKVEAGEGTSESESKHRTVLGVDLGVNNLAVASTGRFWSAGEFNHWRREYEKRRALLQQCGSRHAHENIESVGQKEYGRFEIYLHTVANELIEEAIENDCSHIVFEDLTHIRENIPEATWQHVWAFRRLYEYVEYKAKENGVEAVQVDPRNTSKRCLTCGFTHDDNRNGESFKCQQCGYENHADYNASKNIGLQYLRRRQNADDGGAPVDVRLNRGTLNVSGEYAHPASTEALEHHHHHH | not soluble
MAIALVTGGSRGIGRATALLLAQEGYTVAVNYQQNLHAAQEVMNLITQAGGKAFVLQADISDENQVVAMFTAIDQHDEPLAALVNNAGILFTQCTVENLTAERINRVLSTNVTGYFLCCREAVKRMALKNGGSGGAIVNVSSVASRLGSPGEYVDYAASKGAIDTLTTGLSLEVAAQGIRVNCVRPGFIYTEMHASGGEPGRVDRVKSNIPMQRGGQAEEVAQAIVWLLSDKASYVTGSFIDLAGGK | not soluble
MAIESGYILTTPCKNEEKSLPELAESIINQTITPKLWLIINDNSTDNSAKILRDIETKYNWIRVVTSEGQKRDLSFHYAEVVRYGLSLSLEISSAEKIPVEYIGLIDADMILEKNFFEKMIDRFEQDPNLGVASGSTAYFEAENLVTEKGRDNLPIGGLRVWRRECLIETGGFPLSYSADSVSNVLALLHGWETKKFEDIIGIQTRRTGSAEGLWKGYITKGESDYYRDYHPVYVLSKFIKYSFTHPFYIGIAYMEGYINGIVKIKKKICIPEVRRYYRKKHLEIGRYYAGKFKFKLLEHHHHHH | not soluble
MAIKDLFNNFFLMDDEEEVESPEERQRRVVQNEENETNNVQQNQPQQSERSYSNQSKLKTVPQKKTTRNYNSEERNVRMNQPPSKSNGKNVVTMNQTSQSYSGYESSKMCLFEPRVFSDTQDIADELKNRRATLVNLQRIDKISAKRIIDFLSGTVYAIGGDIQRVGTDIFLCTPDNVEVAGSITDHIEQMESQHYELEHHHHHH | not soluble
MAIQGSRTEGLGGYTFDDLAVVMGTYNEEEAIGTVLDDIATVTDGRAEVICVDGSSDRTPEIARDHGATVIEQEPQGYGVAVREAVLTPDRPVVVTTDCDDTYPMERLPDFLAEINDGADVVSGDRLYYGAEQMPAMNKLGNELFALLASVLMGKRVHDTTTGMRAYRREVLQKIVWTENTGLSAELLMRPLMRGYDVRERPIEYDERKGETKLDPFSGGAAIAKSIVRVALEERFRLEHHHHHH | soluble
MAIRKLLLLLKPIDPYPFLQTEGASLIKNPQVLINYLPQMRLISILNPDHVLQYLESRCKVHKNAIKFCQEILSKKPVEWKPISRNDLSHPIRDVDMVITVGGDGTLLHASHFIDDSVPVLGVNSDPTQAHEVEELSDQFDASRSTGHLCAATVENFEQVLDDILFGRVVPAKVSRISLKLNSETLLSHALNDILIAQPCPAAVSRFSFKIKNKDGASSPKTVNCRSSGLRICTAAGSTAAMQSAGGFVMPMLSRDLQFMVREPISPGSTASLMHSTFKPDQFMDVNWYSDHGTIYIDGCQVQHSVQLGDTIEISSDAPVLNVFLSHGISQIRSRY | soluble
MAISKLFFAYFHKNEKPFKMLCLPLLPLKNVINQMSFESVWRLSKTSRKMYEKIKNVKKSIYKIVIDNRFEYNIIYPRFKTRILRFEKKSDFVSVYNEMGTNKEITASVYLKFSVDFWIELFYKLDKRGPGKLRSSVYKLNHLKKRLKYLNRFDELFSIKHVDLVIDKYKLFGDSISHPLFQKCDYMEIVGNTSYISNNEMNFVLNNFKLKNGLLTNCLIAEDFDVTAMQQIPRLVIFNAQHITVEDLIKMDCETIKLCYHQFKPRHINQLLHHWLSGEMPKLRRFRLNFYCDTTWIGVVLSGIEHSKWDGQRRAKFFRDGIESIDCGNGFDIERNDGLLATFSSLEDSIDFVVWGNISAL | not soluble
MAKEFGRPQRVAQEMQKEIALILQREIKDPRLGMMTTVSGVEMSRDLAYAKVYVTFLNDKDEDAVKAGIKALQEASGFIRSLLGKAMRLRIVPELTFFYDNSLVEGMRMSNLVTSVVKHDEERRVNPDDSKEDLEHHHHHH | soluble
